The sequences below were run against CCHF Peptide 1 (envelope surface peptide) (Crimean-Congo hemorrhagic fever virus) (UniProt Q8JSZ3) (assay: SPR). Settings: not given.
Chain of UniProt Q8JSZ3 (Q8JSZ3 whole entry, looked up): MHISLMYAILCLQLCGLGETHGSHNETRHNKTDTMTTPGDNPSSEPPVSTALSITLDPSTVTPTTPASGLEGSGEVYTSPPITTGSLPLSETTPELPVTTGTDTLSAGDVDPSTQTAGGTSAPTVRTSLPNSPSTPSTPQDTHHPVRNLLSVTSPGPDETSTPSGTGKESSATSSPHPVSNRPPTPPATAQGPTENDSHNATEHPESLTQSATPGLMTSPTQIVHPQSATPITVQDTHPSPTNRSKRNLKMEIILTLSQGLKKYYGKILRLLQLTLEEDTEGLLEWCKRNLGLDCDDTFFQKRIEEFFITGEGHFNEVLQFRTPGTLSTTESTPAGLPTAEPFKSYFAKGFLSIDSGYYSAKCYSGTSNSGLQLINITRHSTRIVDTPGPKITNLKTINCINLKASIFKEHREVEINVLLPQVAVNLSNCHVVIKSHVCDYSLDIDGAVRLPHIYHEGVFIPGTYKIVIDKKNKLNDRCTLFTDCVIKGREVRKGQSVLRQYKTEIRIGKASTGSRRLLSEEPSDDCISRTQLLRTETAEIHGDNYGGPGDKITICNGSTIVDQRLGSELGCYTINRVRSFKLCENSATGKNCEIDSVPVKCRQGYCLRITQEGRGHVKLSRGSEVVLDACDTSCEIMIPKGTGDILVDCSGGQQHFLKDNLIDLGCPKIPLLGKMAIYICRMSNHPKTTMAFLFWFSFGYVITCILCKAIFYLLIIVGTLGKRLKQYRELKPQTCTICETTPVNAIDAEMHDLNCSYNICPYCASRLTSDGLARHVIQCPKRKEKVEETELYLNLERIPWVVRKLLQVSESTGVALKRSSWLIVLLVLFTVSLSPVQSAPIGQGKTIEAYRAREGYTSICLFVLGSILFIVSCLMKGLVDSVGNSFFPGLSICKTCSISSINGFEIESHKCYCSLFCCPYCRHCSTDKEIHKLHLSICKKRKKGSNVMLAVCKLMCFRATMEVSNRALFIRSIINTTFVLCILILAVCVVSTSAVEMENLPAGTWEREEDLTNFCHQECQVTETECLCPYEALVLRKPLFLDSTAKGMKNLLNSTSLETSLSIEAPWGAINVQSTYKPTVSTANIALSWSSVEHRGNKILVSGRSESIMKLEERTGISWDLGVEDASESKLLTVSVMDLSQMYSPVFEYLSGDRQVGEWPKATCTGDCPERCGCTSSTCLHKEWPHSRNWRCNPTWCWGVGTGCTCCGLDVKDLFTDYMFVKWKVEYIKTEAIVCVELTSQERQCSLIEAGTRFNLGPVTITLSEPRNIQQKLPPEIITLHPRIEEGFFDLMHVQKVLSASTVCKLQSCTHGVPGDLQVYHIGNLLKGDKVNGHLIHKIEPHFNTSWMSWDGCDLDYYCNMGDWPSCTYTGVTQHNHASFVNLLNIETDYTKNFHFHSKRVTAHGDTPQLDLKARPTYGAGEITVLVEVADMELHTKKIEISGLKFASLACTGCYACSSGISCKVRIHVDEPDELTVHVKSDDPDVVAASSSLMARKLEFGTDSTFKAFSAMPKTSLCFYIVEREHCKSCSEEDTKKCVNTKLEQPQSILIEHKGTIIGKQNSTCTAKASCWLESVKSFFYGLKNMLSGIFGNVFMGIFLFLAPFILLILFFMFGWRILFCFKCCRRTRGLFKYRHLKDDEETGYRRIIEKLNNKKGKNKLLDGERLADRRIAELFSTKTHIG
Work on “ATACGGGAGCCAACACCATGGTGACGGACCTTGAGAGCAAGACCGCTACGATTCAGAGCAGGTGTGACGGAT [C1-9F]” yielded a Kd of 8.13 pM.

The sequences below were run on CCHF envelope peptides (individual peptide not specified) (Crimean-Congo hemorrhagic fever virus) (assay: ELONA). Settings: not given.
“ATCCGTCACACCTGCTCTACGGCCCTGCACCACTTATTCTAGGCAGTGTTCTTCTGGTGTTGGCTCCCGTAT [C1-10R]” was tested, and the binding signal was 1.62 A405. “ATACGGGAGCCAACACCATAGTGTTGGGCCAATACGGTAACGTGTCCTTGGAGAGCAGGTGTGACGGAT [C1-1/7F]” showed a binding signal of 1.9 A405. “ATCCGTCACACCTGCTCTGCATCGGTACCCAGGATATCCTTCTATTGTCAGCTGTGGTGTTGGCTCCCGTAT [C3-4R]” gave a binding signal of 2.47 A405. For “ATCCGTCACACCTGCTCTATGAGTCTATCCAGTTCTAAAAGTTCCGCTCTTTATTGGTGTTGGCTCCCGTAT [C1-1R]”, the binding signal was 1.99 A405. With “ATCCGTCACACCTGCTCTCCAAGGACACGTCACCGTATTGGCCCAACACTATGGTGTTGGCTCCCGTAT [C3-8R]” the binding signal was 1.48 A405. Work on “ATCCGTCACACCTGCTCTCGGGACGCGAGCGGCCTGCGGGAACCAGGCGGGGGCTGGTGTTGGCTCCCGTAT [C3-6R]” yielded a binding signal of 2.48 A405. “ATCCGTCACACCTGCTCTGAATCGTAGCGGTCTTGCTCTCAAGGTCCGTCACCATGGTGTTGGCTCCCGTAT [C1-9R]” showed a binding signal of 1.56 A405. “ATACGGGAGCCAACACCAATGAGAGCAAAGATCCCAGGATACACTAATCCCTGTAGAGCAGGTGTGACGGAT [C1-3F]” showed a binding signal of 1.85 A405. “ATCCGTCACACCTGCTCTATACCAACGGGGGACGGTCTGAGCTAGTGACGCCCGTGGTGTTGGCTCCCGTAT [C3-7R]” showed a binding signal of 1.5 A405. With “ATACGGGAGCCAACACCACAGCTGACAATAGAAGGATATCCTGGGTACCGATGCAGAGCAGGTGTGACGGAT [C3-4F]” the binding signal was 2.67 A405. Work on “ATCCGTCACACCTGCTCTGGGCAGCACTACCGGTGTCGTTGTGTTGGCATTTCTTGGTGTTGGCTCCCGTAT [C1-6R]” yielded a binding signal of 1.95 A405. Sequence “ATACGGGAGCCAACACCATGGTGACGGACCTTGAGAGCAAGACCGCTACGATTCAGAGCAGGTGTGACGGAT [C1-9F]” has a binding signal of 2.24 A405. “ATACGGGAGCCAACACCACAGACACCGAATGAGCAACACAACAACGGGACCCGTAGAGCAGGTGTGACGGAT [C2-8F]” gave a binding signal of 1.65 A405. Sequence “ATCCGTCACACCTGCTCTGCAAAGAGGTCGTAGTGCCGTGTCCGGTCGGATACCTGGTGTTGGCTCCCGTAT [C2-10R]” has a binding signal of 1.66 A405. For “ATCCGTCACACCTGCTCTCCAAGGACACGTTACCGTATTGGCCCAACACTATGGTGTTGGCTCCCGTAT [C1-1/7R]”, the binding signal was 2.05 A405.

The sequences below were run on TBEV target (not specified) (Tick-borne encephalitis virus) (assay: ELONA). Settings: not given.
In the case of “ATACGGGAGCCAACACCACACGAACGGAGTGCACCGGGGAAGATACTCCAACGCAGAGCAGGTGTGACGGAT [TBEV-3F]”, the binding signal is reported as 1.8 A405. Sequence “ATCCGTCACACCTGCTCTCAACGGCCACTAGTCTATTCACTTAAAGGGGCATGGTGGTGTTGGCTCCCGTAT [TBEV-5R]” has a binding signal of 1.93 A405. For “ATACGGGAGCCAACACCACCGCAGGAGTCCATCAGGGGTTGGCAGTCAGCGCTCAGAGCAGGTGTGACGGAT [TBEV-2F]”, the binding signal was 2.31 A405. “ATCCGTCACACCTGCTCTGCGTTGGAGTATCTTCCCCGGTGCACTCCGTTCGTGTGGTGTTGGCTCCCGTAT [TBEV-3R]” showed a binding signal of 1.91 A405. “ATCCGTCACACCTGCTCTACATCACATCTGACTGAGTCCATGGCGCTCTGTGTGTGGTGTTGGCTCCCGTAT [TBEV-8R]” gave a binding signal of 2.43 A405. “ATCCGTCACACCTGCTCTTAAAGTAGAGGCTGTTCTCCAGACGTCGCGGGAGGATGGTGTTGGCTCCCGTAT [TBEV-7R]” showed a binding signal of 1.97 A405. “ATACGGGAGCCAACACCAGCCAATTATACAGGTAGGTCAAAAAAGTTTAGGGGAAGAGCAGGTGTGACGGAT [TBEV-4F]” gave a binding signal of 1.88 A405. For “ATCCGTCACACCTGCTCTTCCCCTAAACTTTTTTGACCTACCTGTATAATTGGCTGGTGTTGGCTCCCGTAT [TBEV-4R]”, the binding signal was 2.12 A405. For “ATACGGGAGCCAACACCATCCTCCCGCGACGTCTGGAGAACAGCCTCTACTTTAAGAGCAGGTGTGACGGAT [TBEV-7F]”, the binding signal was 2.02 A405. In the case of “ATCCGTCACACCTGCTCTGGGCCAACGGACGGGATCGCGAGGCTAAGACGTCTCTGGTGTTGGCTCCCGTAT [TBEV-6R]”, the binding signal is reported as 2.12 A405. Work on “ATACGGGAGCCAACACCAGAGACGTCTTAGCCTCGCGATCCCGTCCGTTGGCCCAGAGCAGGTGTGACGGAT [TBEV-6F]” yielded a binding signal of 2.07 A405. Sequence “ATACGGGAGCCAACACCACACACAGAGCGCCATGGACTCAGTCAGATGTGATGTAGAGCAGGTGTGACGGAT [TBEV-8F]” has a binding signal of 1.85 A405. “ATACGGGAGCCAACACCATTGACTTGGCCGTCTCTGACCCCTAGCACCCCTCGCAGAGCAGGTGTGACGGAT [TBEV-10F]” showed a binding signal of 1.95 A405. Sequence “ATCCGTCACACCTGCTCTGTACGTTACTCGCCGATACGGAAGGGCGGTGCCGAGTGGTGTTGGCTCCCGTAT [TBEV-1R]” has a binding signal of 2.15 A405. Work on “ATCCGTCACACCTGCTCTGCGAGGGGTGCTAGGGGTCAGAGACGGCCAAGTCAATGGTGTTGGCTCCCGTAT [TBEV-10R]” yielded a binding signal of 1.82 A405. For “ATCCGTCACACCTGCTCTGAGCGCTGACTGCCAACCCCTGATGGACTCCTGCGGTGGTGTTGGCTCCCGTAT [TBEV-2R]”, the binding signal was 2.6 A405. “ATACGGGAGCCAACACCACCATGCCCCTTTAAGTGAATAGACTAGTGGCCGTTGAGAGCAGGTGTGACGGAT [TBEV-5F]” gave a binding signal of 2.06 A405. “ATACGGGAGCCAACACCACTCGGCACCGCCCTTCCGTATCGGCGAGTAACGTACAGAGCAGGTGTGACGGAT [TBEV-1F]” was tested, and the binding signal was 1.94 A405.

What follows are sequences tested on WNV envelope peptide (West Nile virus) (assay: ELONA). Settings: not given.
With “ATCCGTCACACCTGCTCTCAGAGACGGGGCCCCTGGCTGGGTGAAGGCCACGGGTGGTGTTGGCTCCCGTAT [WNV 20R]” the binding signal was 2.47 A405. “ATACGGGAGCCAACACCATGTCAGGACCTCCATCGCCCGGGCCCGCCGCCGCTGAGAGCAGGTGTGACGGAT [WNV 16F]” gave a binding signal of 2.45 A405. In the case of “ATACGGGAGCCAACACCACAGCTGATATCGGATGGTCCGGCAGAGCAGGTGTGACGGAT [WNV 19F]”, the binding signal is reported as 2.73 A405. “ATCCGTCACACCTGCTCTGCCGGACCATCCGATATCAGCTGTGGTGTTGGCTCCCGTAT [WNV 19R]” gave a binding signal of 2.18 A405. “ATACGGGAGCCAACACCACCCGTGGCCTTCACCCAGCCAGGGGCCCCGTCTCTGAGAGCAGGTGTGACGGAT [WNV 20F]” gave a binding signal of 2.54 A405. In the case of “ATCCGTCACACCTGCTCTCAGCGGCGGCGGGCCCGGGCGATGGAGGTCCTGACATGGTGTTGGCTCCCGTAT [WNV 16R]”, the binding signal is reported as 2.25 A405. “ATACGGGAGCCAACACCACCCCGTCGCCAAGCACTTGGCTGGGCTCTAACGGCCAGAGCAGGTGTGACGGAT [WNV 18F]” showed a binding signal of 2 A405.

Same assay, conditions: also positive in lateral flow (FIG. 9C)
Work on “ATCCGTCACACCTGCTCTGGCCGTTAGAGCCCAGCCAAGTGCTTGGCGACGGGGTGGTGTTGGCTCCCGTAT [WNV 18R]” yielded a binding signal of 2.65 A405.

The sequences below were run on outer membrane proteins (OMPs) (Rickettsia belli) (assay: ELONA). Settings: not given.
With “ATACGGGAGCCAACACCATAACAAATAACCACCCTCAATGCTAGATAGTGGCTTAGAGCAGGTGTGACGGAT [R5-23F]” the binding signal was 2.93 A405. For “ATACGGGAGCCAACACCAGCACTGCAGTTAACATTTACGAAGAGGCTTTAATGCAGAGCAGGTGTGACGGAT [R5-39F]”, the binding signal was 1.95 A405. For “ATCCGTCACACCTGCTCTAAATAGATCACGCATAATGGCATTAGTATTAGTGTTGGTGTTGGCTCCCGTAT [R5-21bR]”, the binding signal was 1.89 A405.

Each sequence was assayed on outer membrane proteins (OMPs) (Rickettsia conorii) (assay: ELONA). Settings: not given.
In the case of “ATCCGTCACACCTGCTCTTTGGTTAATCCGAATTTGCTTGCACTTAAGTTGTGCTGGTGTTGGCTCCCGTAT [R4-1R]”, the binding signal is reported as 2.12 A405. “ATCCGTCACACCTGCTCTCCAGATTTGGTGTTATGCTCTTGTTTGGCTTGGACTTGGTGTTGGCTCCCGTAT [R4-14R]” showed a binding signal of 2.05 A405. Work on “ATACGGGAGCCAACACCAGCACAACTTAAGTGCAAGCAAATTCGGATTAACCAAAGAGCAGGTGTGACGGAT [R4-1F]” yielded a binding signal of 1.99 A405.

What follows are sequences tested on outer membrane proteins (OMPs) (Rickettsia parkeri) (assay: ELONA). Settings: not given.
With “ATCCGTCACACCTGCTCTTTTCCTATGAATGGTAATCAATTAGAGTCTATATCTTGGTGTTGGCTCCCGTAT [R2-17R]” the binding signal was 2.05 A405. For “ATACGGGAGCCAACACCAGAAAATGAATACTTCCCAAGCTTGTCAAGCAAGTAAGAGCAGGTGTGACGGAT [R2-5F]”, the binding signal was 1.95 A405. In the case of “ATACGGGAGCCAACACCATAACGGTTCCCTTAATGCGCTACCCACACTATACAAGAGCAGGTGTGACGGAT [R2-14F]”, the binding signal is reported as 2.08 A405.

The sequences below were run on outer membrane proteins (OMPs) (Rickettsia rickettsii) (assay: ELONA). Settings: not given.
With “ATCCGTCACACCTGCTCTACATCACATCTGACTGAGTCCATGGCGCTCTGTGTGTGGTGTTGGCTCCCGTAT [R3-39R]” the binding signal was 2.05 A405. “ATACGGGAGCCAACACCACACACAGAGCGCCATGGACTCAGTCAGATGTGATGTAGAGCAGGTGTGACGGAT [R3-39F]” gave a binding signal of 2.12 A405. “ATCCGTCACACCTGCTCTTTCACTAAGCTGACTTTTCACCTCGTCTTCGTGCCGTGGTGTTGGCTCCCGTAT [R3-40R]” gave a binding signal of 1.99 A405.

Each sequence was assayed on outer membrane proteins (OMPs) (Rickettsia typhi) (assay: ELONA). Settings: not given.
“ATACGGGAGCCAACACCACCAACGAATACTACCAGGCCTAGCACAATACACAACAGAGCAGGTGTGACGGAT [R1-27bF]” showed a binding signal of 2.62 A405. For “ATCCGTCACACCTGCTCTACAGTTAGAGCTTGCCGTATGCCTTTGTTAACATAATGGTGTTGGCTCCCGTAT [R1-30R]”, the binding signal was 2.85 A405. Sequence “ATCCGTCACACCTGCTCTTGCTTATATTTAATTTTTTTCCCAAACTAGTAAGATTGGTGTTGGCTCCCGTAT [R1-21R]” has a binding signal of 2.88 A405.

— patent publication US20120149889
